“Also recorded” adds a separate entry of the source. Peptide text beside a SMILES is read from it.
T1: human MrgX2 (Homo sapiens, UniProt Q96LB1)
T1 construct: The used cell line is overexpressing MrgX2 in CHEM1 by recombinant expression; host or cells: CHEM1 (adherent rat cell line)
T1 sequence (Q96LB1 1-330): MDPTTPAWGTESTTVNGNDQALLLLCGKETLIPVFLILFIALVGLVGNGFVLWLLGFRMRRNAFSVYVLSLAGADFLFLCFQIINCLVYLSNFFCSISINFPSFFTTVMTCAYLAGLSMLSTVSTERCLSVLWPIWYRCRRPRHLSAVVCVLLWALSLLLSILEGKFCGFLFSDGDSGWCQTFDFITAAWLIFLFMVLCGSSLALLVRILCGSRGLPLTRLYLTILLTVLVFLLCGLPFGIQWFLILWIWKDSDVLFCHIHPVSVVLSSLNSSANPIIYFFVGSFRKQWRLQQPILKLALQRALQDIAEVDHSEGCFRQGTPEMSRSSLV


Columns and labels:
human MrgX2 = biological target: T1, human MrgX2; assay: Fluo8 assay, intracellular Calcium release in CHEM1-MrgX2 cells; type: cell-based
Description: (§1) The Fluo8 assay is a cell based assay format for the determination of intracellular Calcium release. Cell were seeded on microtiter plates and incubated under standard cell culture conditions. After 24 h the medium was removed and the cells were washed with PBS. The cells were incubated with loading buffer (40 ml PBS with 2 mM Calcium +800 μl brilliant black (2%) +732 μl pobenecid (0.5 M) in 1N NaOH +400 μl Pluronic (10%) in water +152 μl Fluo8 (5.7 μg/ml) in water) for 30 minutes.

CHEM1 cells = assay: Fluo8 assay, Calcium release in CHEM1 (control) cells without MrgX2 overexpression; type: cell-based, rat; conditions: control cell line, same experimental conditions, result in words
Description: as §1, with “minutes. For fluorescence readout and compound testing a FLIPR tetra system was used according to the manufactures protocol (Molecular Devices, Calif. 94089-1136, USA).” for “minutes.”
The used cell lines CHEM1 and CHEM1-MrgX2 are adherent rat cell lines (Millipore, Billerica, Mass. 01821, USA) with were cultures under standard cell culture conditions.

human MrgX2 (human) = human MrgX2 (human) (UniProt Q96LB1); assay: cell-based or functional assay
CXCR4 = biological target: T2, CXCR4 (Homo sapiens, UniProt P61073); assay: CXCR4 activity assay (CRE-luciferase reporter); type: cell-based; conditions: result in words
T2 construct: expressed in transfected cells
Excerpt: The CXCR4 receptor is a chemokine receptor and belongs to the family of G protein coupled receptors (GPCRs). Its only known endogenous ligand is stromal cell-derived factor 1 (SDF-1a). CXCR4 is a Gi coupled receptor. Its activation leads to a decrease of intracellular cAMP, which could be monitored by recombinant cAMP-responsive element (CRE) regulated luciferase expression. For the characterization of modulators of CXCR4 activity, stable cell lines expressing recombinant CXCR4 and a CRE-luciferase reporter vector were established. The cells were incubated with forskolin at a concentration of 0.5 μM, SDF-1a (at 20 nM) and test compounds and incubated for 4 h under standard cell culture conditions. Luciferase substrate was added and the luminescence was measured for 60 seconds.

T2 sequence (P61073 whole entry, species assumed): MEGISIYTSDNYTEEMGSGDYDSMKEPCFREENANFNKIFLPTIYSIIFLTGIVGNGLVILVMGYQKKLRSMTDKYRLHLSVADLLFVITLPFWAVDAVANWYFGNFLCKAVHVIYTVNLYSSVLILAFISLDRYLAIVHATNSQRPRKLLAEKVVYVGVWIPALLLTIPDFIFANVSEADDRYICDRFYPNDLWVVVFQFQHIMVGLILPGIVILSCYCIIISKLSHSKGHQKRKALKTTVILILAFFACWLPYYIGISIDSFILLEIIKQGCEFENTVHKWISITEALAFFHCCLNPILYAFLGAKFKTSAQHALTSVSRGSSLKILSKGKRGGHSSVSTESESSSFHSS

Molecule	Calcium release / activity on MrgX2 (CHEM1-MrgX2) (human MrgX2; Fluo8 assay, result in words)	Calcium release on CHEM1 without MrgX2 (CHEM1 cells)	other results
CC(C)C[C@H](NC(=O)[C@H](C)NC(=O)[C@H](Cc1c[nH]c2ccccc12)NC(=O)[C@H](CCCCN)NC(=O)[C@H](CC(N)=O)NC(=O)[C@H](Cc1c[nH]c2ccccc12)NC(=O)[C@H](CCCCN)NC(=O)[C@H](CCCCN)NC(=O)[C@H](CCCNC(=N)N)NC(=O)[C@H](Cc1ccccc1)NC(=O)[C@H](CCC(=O)O)NC(=O)[C@H](CO)NC(=O)[C@H](C)NC(=O)[C@@H](NC(=O)[C@H](CC(=O)O)NC(=O)[C@H](CC(C)C)NC(=O)[C@H](CCCNC(=N)N)NC(=O)[C@H](C)N)C(C)C)C(=O)N[C@@H](CO)C(=O)N[C@@H](CCCNC(=N)N)C(N)=O [PAMP, reference compound] (H-ARLDVASEFRKKWNKWALSR-NH2)	dose dependent Calcium release	not in CHEM1	–
angiotensin II (DRVYIHPF) [reference compound]	Neither NPY or angiotension II nor galanin show a dose dependent Calcium release	Neither NPY or angiotension II nor galanin show a dose dependent Calcium release	–
NPY: peptide analyzed to characterize the specificity of CXCL14 to MrgX2 activation [reference compound]	Neither NPY or angiotension II nor galanin show a dose dependent Calcium release	Neither NPY or angiotension II nor galanin show a dose dependent Calcium release	–
human CXCL14 (from UniProt O95715 35-111) (ligand)	–	–	EC50 of intracellular calcium release (Fluo8 assay) on CHEM1-MrgX2 cells (human MrgX2 (human)): 570 nM
PAMP (from UniProt P35318 22-185) (peptide)	–	–	EC50 of calcium release (Fluo8 assay) on CHEM1-MrgX2 cells (human MrgX2 (human)): 490 nM
Chemokine (C-X-C motif) ligand 14 (protein, listed as Homo sapiens, small cytokine belonging to the CXC chemokine family) SKCKCSRKGPKIRYSDVKKLEMKPKYPHCEEKMVIITTKSVSRYRGQEHCLHPKLQSTKRFIKWYNAWNEKRRVYEE	activated by CXCL14 in a dose dependent matter; also recorded: specific agonist	no significant calcium release	EC50 (human MrgX2; Calcium release, Fluo8 assay, CHEM1 overexpressing MrgX2): 570 nM; activity on G-protein coupled receptor CXCR4 (CXCR4): antagonist
Mouse CXCL14: mouse CXCL14, amino acid sequence in FIG. 19; differs from human by two amino acid residues (protein) SKCKCSRKGPKIRYSDVKKLEMKPKYPHCEEKMVIVTTKSMSRYRGQEHCLHPKLQSTKRFIKWYNAWNEKRRVYEE	dose dependent Calcium release	not on CHEM1 without MrgX2	EC50 on CHEM1-MrgX2 compared with human CXCL14 (human MrgX2; Calcium release, result in words): comparable EC50

Reference: patent US20160096874A1, “MRG RECEPTOR MODULATORS” (BAYER PHARMA AKTIENGESELLSCHAFT, priority 2013, published 2016)
